What was measured:
[1] = target: T1, Mouse CB1 (TRex CHO cells) (Mus musculus, UniProt P47746); assay: Flow cytometry cross-reactivity to mouse CB1; assay type: binding
T1 construct: expressed in transfected cells
Protocol: (§1) To further assess TRex CHO parental cells, TRex CHO A56 overexpressed CB1, Native human CB1 TRex CHO A156, 5HT2B, Mouse CB1 and human CB2 were used to examine the specificity of IgG binding. 100 μl of 1×10^6 cells/ml of cells were incubated with primary antibody IgGs in 3-fold serial dilutions starting from 1 μM to 0.5 nM for 30 minutes on ice. After being washed with 200 μl of FACS buffer twice, cells were incubated with secondary antibody for 30 minutes on ice. Cells were washed with 200 μl of FACS buffer twice and transferred to BD Falcon 5 ml tube and analyzed by FACS.
Santa Cruz anti-CB1 rabbit polyclonal antibody and secondary antibody FITC conjugated anti-rabbit were used to detect the expression of mouse CB1. R&D mouse monoclonal anti-CB2 and human IgG P2C2 were used to confirm the expression of CB2 and 5HT2B respectively. Both anti-mouse and anti-human secondary antibodies were PE-conjugated.
The binding affinity, cross-reactivity and specificity of humanized P1C4 antibodies were determined by flow cytometry with TRex CHO parental cells, TRex CHO A56 overexpressed CB1 cells (T210A/fusion partner), native human CB1 TRex CHO A156 cells, Trex parental (no CB1) cells, mouse CB1 cells, and human CB2 stable cells. […] After being washed with 200 μl of FACS buffer twice, cells were incubated with PE conjugated anti-human secondary antibody (Southern Biotech) for 30 minutes on ice. Cells were washed with 200 μl of FACS buffer twice and transferred to BD Falcon 5 ml tube and analyzed by flow cytometry (BD FACScalibur).
Binding selectivity and cross-reactivity of PA13R3-P1C4 and its humanized variants was also characterized by flow cytometry using TRex CHO cells stably transfected with the GPCRs of interest. Specifically, binding selectivity for CB1 over CB2 was determined. Cross reactivity to mouse CB1 was also determined. For detecting expression of mouse CB1, 100 μL of 1×10^6 cells/mL of cells were incubated with anti-CB1 rabbit polyclonal antibody (Santa Cruz) at 1 μg/100 μL on ice for 30 min. Mouse monoclonal anti-CB2 antibody from R&D Systems was used to confirm the expression of CB2. 100 μL of 1×10^6 cells/mL of cells were incubated with anti-CB2 antibody at 0.5 μg/100 μL on ice for 30 minutes. After incubation, cells were then centrifuged at 4° C. at 1600 rpm for 3 minutes; supernatant was aspirated and cells were washed with 200 μL FACS buffer. The procedure was repeated twice. […] Cells were washed with 200 μL FACS buffer twice and analyzed by flow cytometry (Guava). Binding of purified IgG full concentration curves ranging from 1 μM to 1.3 nM was determined. […]

[2] = target: T2, Native human CB1 TRex CHO A156 (Homo sapiens, UniProt P21554); assay: Flow cytometry (FACS) binding to native human CB1 cells
T2 construct: pcDNA4/TO native full length human CB1 receptor construct was transfected into tetracycline inducible system Trex-CHO cells; expressed in transfected cells
Protocol: (§2) TRex CHO parental cells, TRex CHO A56 over-expressed CB1 (CB1 T210A/fusion partner), and Native human CB1 TRex CHO A156 were harvested from flasks. 100 μl of 1×10^6 cells/ml of cells were incubated with primary antibody IgGs. Secondary Antibody PE conjugated anti-human and anti-mouse was diluted in 1:200 folds. Anti-Human Fab FITC was diluted in 1:32 folds. Cells were washed with 200 μl of FACS buffer twice and transferred to BD 5 ml Falcon tube and analyzed by flow cytometry. Binding of purified IgG was initially tested at concentrations of 30 nM and 300 nM.
as §1
(§3) For selected binders, full binding curves were generated on CB1 receptor by testing a range of concentrations. Three-fold serial dilutions from 1 μM to […] were prepared. Selectivity was determined by measuring binding to cells expressing 5HT2B or CB2, relative to binding to A156 (native human CB1 receptor expressing) or A56 (overexpressed—CB1 receptor with the T210A modification and ICL3 replacement with fusion partner) by flow cytometry. […]
(§4) The binding affinity, cross-reactivity and specificity of humanized P1C4 antibodies were determined by flow cytometry with TRex CHO parental cells, TRex CHO A56 overexpressed CB1 cells (T210A/fusion partner), native human CB1 TRex CHO A156 cells, Trex parental (no CB1) cells, mouse CB1 cells, and human CB2 stable cells. […] Cells were washed with 200 μl of FACS buffer twice and transferred to BD Falcon 5 ml tube and analyzed by flow cytometry (BD FACScalibur).

[3] = target: A139 iCAPS (human CB1, ICL3 replaced with BRIL); assay: ELISA binding of IgG/Fab to CB1 iCAPS A139; conditions: IgG and Fab ELISA, Table 8
Protocol: (§5) Purified IgG was tested for binding to purified CB1 receptor (CB1 Conformation Antigen Presenting System (iCAPS)) by ELISA. Non-biotinylated antigens (e.g. empty iCAPS) were coated directly on Maxisorp plates. The primary antibodies were purified IgGs with 1:3 serial dilutions, incubated on the plate for 1 hour. After 3 rounds of washing with PBST, secondary antibodies HRP goat anti-mouse IgG (Abmart) or HRP goat anti-human IgG (Sigma), depending on the species of the IgGs were added and incubated for another hour. The plates were washed three times with PBST, then developed with TMB (Biopanda). HCl was added to the plates to stop the reaction. Absorbance at 450 nm was read on Emax precision microplate reader (Molecular Devices).
(§6) IgG and Fab molecules tested were 36E12B6C2 IgG, 36E12B6C2 Fab, PA13R3-P1C4 IgG, and PA13R3-P1C4 Fab, compared to negative control BRIL binder P1F7 IgG and P1F7 Fab. For IgG antibodies, the secondary antibody used to detect binding was anti-mouse IgG-HRP; for Fabs, the secondary antibody used to detect binding was anti-human IgG-HRP.

[4] = target: A138 iCAPS (human CB1, ICL3 replaced with protein 1 sequence); assay: ELISA binding of IgG/Fab to CB1 iCAPS A138; conditions: IgG and Fab ELISA, Table 8
Protocol: as §5, §6

[5] = system: TRex CHO A56 over-expressed CB1 (CB1 T210A/fusion partner); assay: Flow cytometry (FACS) binding to over-expressed CB1 cells; design: species or system human
Protocol: as §2, §1, §3, §4

Molecule | cross-activity with Mouse CB1 [1] | binding to A156 (in words) [2] | EC50 [3] [nM] | EC50 [4] [nM] | binding to A56 (in words) [5] | Kd TRexCHO Mouse CB1 ([1]; Table 10)
36E12B6C2: hybridoma-derived anti-CB1 mAb; HC variable SEQ ID NO: 18, LC variable SEQ ID NO: 22 (antibody, listed as Mus sp., V domains shown) VH: QVQLQQSGAELVRPGSSVKISCKASGYEFSYYWMNWVKQRPGQGLQWIGQIYPGDGDTNYNGKFKGKATLTADKSSSTAYMHLTSLTSEDSAVYFCARSGGNPFAFWGQGTLVTVSA VL: DIQMTQTSSSLSASLGDRVTFSCRASQDISNYLNWYQQKPDGTVKLLIYYTSRLHSGVTSRFRGSGSGTDYSLTISNLEQEDVATYFCQQGHTLPWSFGGGTKLEIK | do not have cross-activity | bind to both A56 and A156 | 0.19 | 0.201 | bind to both A56 and A156 | –
PA13R3-P1C4: phage-derived chimeric anti-CB1 IgG; HC variable SEQ ID NO: 2, LC variable SEQ ID NO: 6 (antibody, V domains shown, PA13R3-P1C4 Heavy chain variable region; PA13R3-P1C4 Light chain variable region) VH: EVQLQQSGAELVRPGVSVKISCKASGYEFSYYWMNWVKQRPGQGLEWIGQIYPGDGETKYNGKFKGKATLTADKSSNTAYMQLSSLTSEDSAVYFCARSHGNYLPYWGQGTLVTVSA VL: DIVLTQSPAIMSASLGERVTMTCTASSSVSSSYLHWYQQKPGSSPKLWIYSTSNLASGVPARFSGSGSGTSYSLTISSMEAEDAATYYCHQYHRSPPTFGAGTKLELK | do not have cross-activity | bind to both A56 and A156 | 0.17 | 0.17 | bind to both A56 and A156 | No binding
PA13R3-P1C4 Fab: Fab fragment of chimeric PA13R3-P1C4 (antibody, V domains shown) VH: EVQLQQSGAELVRPGVSVKISCKASGYEFSYYWMNWVKQRPGQGLEWIGQIYPGDGETKYNGKFKGKATLTADKSSNTAYMQLSSLTSEDSAVYFCARSHGNYLPYWGQGTLVTVSA VL: DIVLTQSPAIMSASLGERVTMTCTASSSVSSSYLHWYQQKPGSSPKLWIYSTSNLASGVPARFSGSGSGTSYSLTISSMEAEDAATYYCHQYHRSPPTFGAGTKLELK | do not have cross-activity | bind to both A56 and A156 | 0.27 | 0.23 | bind to both A56 and A156 | –

From patent US11421026B2, “Antibodies that bind human cannabinoid 1 (CB1) receptor” (BIRD ROCK BIO, Inc., priority 2015, dated 2022)
